For assay [1], the target named is triple-helical collagen peptide GPC-(GPP)5-GPRGQOGVNleGFO-(GPP)5-GPC-NH2. Briefly: ELISA; solid-phase binding assay: DS2-Fc added to 96-well plates coated with triple-helical collagen peptides at 10 μg/ml.
Assay [2] has as its target triple-helical collagen peptide Ac-GPOGPOGPOGPRGQOGVNleGFOGPOGPOG-NH2. In words: crystal structure; complex formed at molar peptide:protein ratio ~1.5:1; hanging drop vapor diffusion at room temperature, 0.1 M PCB pH 7.0, 25% PEG1500; 1.6 Å, molecular replacement.
The target is the same in assay [3]. Briefly: SEC; analytical size exclusion chromatography, 24 ml Superdex 75, 20 mM MES, 100 mM NaCl pH 6.5; 16 nmol DS domain in PBS alone or mixed with varying amounts of collagen peptide (two-fold molar excess for the complex), incubated 30 min in 0.5 ml.

This note sets out measurements from PMC2807035.

In assay [1], “DS2-Fc (Fc-tagged DS domain of DDR2) (Fc fusion)” showed a fold increase of binding against the methionine peptide of 10 fold. The stoichiometry N is the number of molecules, sites or subunits per partner or assembly. As to “triple-helical collagen peptide Ac-GPOGPOGPOGPRGQOGVNleGFOGPOGPOG-NH2”, in assay [2], the stoichiometry N was determined as 3.

B1: DS domain of human DDR2 (His-tagged, residues 26-190) (domain or fragment)
chain: NPAICRYPLGMSGGQIPDEDITASSQWSESTAAKYGRLDSEEGDGAWCPEIPVEPDDLKEFLQIDLHTLHFITLVGTQGRHAGGHGIEFAPMYKINYSRDGTRWISWRNRHGKQVLDGNSNPYDIFLKDLEPPIVARFVRFIPVTDHSMNVCMRVELYGCVWLDG
B1: the stoichiometry N in assay [3] turned out to be 1.
